Laboratory results as given in article PMC3524239, “Brain Transcriptome-Wide Screen for HIV-1 Nef Protein Interaction Partners Reveals Various Membrane-Associated Proteins” (PLoS ONE, 2012).
Where no end group is shown, it is not given here. The star is where a group is joined. FITC = O=C1OC2(c3ccc(O)cc3Oc3cc(O)ccc32)c2ccc(NC(=S)*)cc21

B1: fluoresceinyl-labeled peptide GPM6B(112-127) (peptide, UniProt Q13491-1 112-127, looked up)
peptide: {FITC}-TTSAVKELHGEFKTTA
notes: GPM6B cytoplasmic loop, residues 112-127; numbers count on: UniProtKB entry Q13491-1; also called FITC-labeled GPM6B peptide; source: synthetic peptide

Tests used:
[1] = molecular target: fluoresceinyl-labeled peptide of PLP1; assay: other fluorescence titration; 0.5 µM fluoresceinyl-labeled peptide titrated with recombinant Nef(2-210); compared with a buffer control titration; fit of a simple bimolecular model with ligand depletion
[2] = molecular target: T1, recombinant HIV-1 SF2 Nef(2-210) protein (HIV-1 isolate SF2, UniProt P03407 2-210); assay: as above; conditions: both partners purified
T1 construct: Nef protein of HIV-1 isolate SF2, residues 2-210; also called purified Nef protein; source: recombinant, purified, prepared as described in [68]
T1 sequence (P03407 2-210): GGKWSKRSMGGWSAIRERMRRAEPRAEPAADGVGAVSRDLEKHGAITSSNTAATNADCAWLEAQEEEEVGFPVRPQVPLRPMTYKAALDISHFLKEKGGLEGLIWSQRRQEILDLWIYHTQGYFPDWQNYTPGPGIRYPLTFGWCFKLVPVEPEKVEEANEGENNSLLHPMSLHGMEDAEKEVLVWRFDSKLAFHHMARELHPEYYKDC

| Molecule | Kd [1] | Kd [2] |
| --- | --- | --- |
| recombinant HIV-1 SF2 Nef(2-210) protein (from UniProt P03407 2-210) (natural protein) | 710 nM |  |
| B1 |  | 640 ± 60 nM |
